Values quoted from earlier work as cited in paper PMC12756081.

Tests used:
[1] = target: IL-18Rα/IL-18Rβ (Homo sapiens) (UniProt Q13478); details: cited from earlier work
IL-18Rα (Homo sapiens) = IL-18Rα (Homo sapiens) (UniProt Q13478); details: cited from earlier work
Chain of IL-18Rα (Homo sapiens) (Q13478 19-541): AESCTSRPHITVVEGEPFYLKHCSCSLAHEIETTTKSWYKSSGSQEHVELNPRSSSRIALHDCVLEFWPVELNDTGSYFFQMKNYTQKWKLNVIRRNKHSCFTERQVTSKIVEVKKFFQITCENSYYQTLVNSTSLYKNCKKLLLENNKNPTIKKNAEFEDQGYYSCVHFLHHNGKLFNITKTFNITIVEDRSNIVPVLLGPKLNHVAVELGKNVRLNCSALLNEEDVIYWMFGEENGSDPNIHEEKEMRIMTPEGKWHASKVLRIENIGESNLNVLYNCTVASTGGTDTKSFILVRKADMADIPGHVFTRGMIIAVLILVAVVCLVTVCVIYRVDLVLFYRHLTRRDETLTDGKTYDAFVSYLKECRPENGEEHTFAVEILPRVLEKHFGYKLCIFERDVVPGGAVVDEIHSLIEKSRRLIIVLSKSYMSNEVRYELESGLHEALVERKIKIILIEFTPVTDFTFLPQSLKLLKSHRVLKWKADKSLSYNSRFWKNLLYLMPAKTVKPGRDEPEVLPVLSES

Chain of IL-18 (Q14116 37-193): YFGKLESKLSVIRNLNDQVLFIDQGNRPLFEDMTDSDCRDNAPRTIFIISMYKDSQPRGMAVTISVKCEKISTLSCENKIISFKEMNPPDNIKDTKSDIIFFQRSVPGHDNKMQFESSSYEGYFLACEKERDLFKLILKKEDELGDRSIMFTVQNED
Chain of IL-18Rα/IL-18Rβ (Homo sapiens) (Q13478 19-541, chain 1 of 2): as the sequence (Q13478 19-541) above
Chain of IL-18Rα/IL-18Rβ (Homo sapiens) (O95256 20-599, chain 2 of 2, further chain): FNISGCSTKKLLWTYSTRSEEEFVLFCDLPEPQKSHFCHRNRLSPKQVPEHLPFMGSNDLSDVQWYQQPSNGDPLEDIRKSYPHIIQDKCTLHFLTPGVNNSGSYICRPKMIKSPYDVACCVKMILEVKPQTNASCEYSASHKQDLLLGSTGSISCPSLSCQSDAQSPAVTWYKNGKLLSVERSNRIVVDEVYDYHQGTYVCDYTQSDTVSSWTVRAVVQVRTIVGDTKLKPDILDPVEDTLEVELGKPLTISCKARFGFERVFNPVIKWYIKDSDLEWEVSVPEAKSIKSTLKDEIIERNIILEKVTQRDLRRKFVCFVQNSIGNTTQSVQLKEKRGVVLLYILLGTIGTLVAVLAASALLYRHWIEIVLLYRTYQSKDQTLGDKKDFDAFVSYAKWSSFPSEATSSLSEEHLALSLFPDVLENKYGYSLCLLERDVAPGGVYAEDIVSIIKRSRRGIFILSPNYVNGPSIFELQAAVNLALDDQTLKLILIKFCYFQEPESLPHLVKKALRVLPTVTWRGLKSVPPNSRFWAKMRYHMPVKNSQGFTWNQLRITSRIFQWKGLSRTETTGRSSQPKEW

For IL-18 (from UniProt Q14116), the Kd [1] is given as 1 nM and the Kd (IL-18Rα (Homo sapiens)) is given as 30 nM.
